Assay results taken from publication PMC7367873, “Dissecting the sequence determinants for dephosphorylation by the catalytic subunits of phosphatases PP1 and PP2A” (Nature Communications, 2020).

B1: NOP2 (protein, UniProt P46087 1-812, looked up)
28S rRNA …: MGRKLDPTKEKRGPGRKARKQKGAETELVRFLPAVSDENSKRLSSRARKRAAKRRLGSVEAPKTNKSPEAKPLPGKLPKGISAGAVQTAGKKGPQSLFNAPRGKKRPAPGSDEEEEEEDSEEDGMVNHGDLWGSEDDADTVDDYGADSNSEDEEEGEALLPIERAARKQKAREAAAGIQWSEEETEDEEEEKEVTPESGPPKVEEADGGLQINVDEEPFVLPPAGEMEQDAQAPDLQRVHKRIQDIVGILRDFGAQREEGRSRSEYLNRLKKDLAIYYSYGDFLLGKLMDLFPLSELVEFLEANEVPRPVTLRTNTLKTRRRDLAQALINRGVNLDPLGKWSKTGLVVYDSSVPIGATPEYLAGHYMLQGASSMLPVMALAPQEHERILDMCCAPGGKTSYMAQLMKNTGVILANDANAERLKSVVGNLHRLGVTNTIISHYDGRQFPKVVGGFDRVLLDAPCSGTGVISKDPAVKTNKDEKDILRCAHLQKELLLSAIDSVNATSKTGGYLVYCTCSITVEENEWVVDYALKKRNVRLVPTGLDFGQEGFTRFRERRFHPSLRSTRRFYPHTHNMDGFFIAKFKKFSNSIPQSQTGNSETATPTNVDLPQVIPKSENSSQPAKKAKGAAKTKQQLQKQQHPKKASFQKLNGISKGADSELSTVPSVTKTQASSSFQDSSQPAGKAEGIREPKVTGKLKQRSPKLQSSKKVAFLRQNAPPKGTDTQTPAVLSPSKTQATLKPKDHHQPLGRAKGVEKQQLPEQPFEKAAFQKQNDTPKGPQPPTVSPIRSSRPPPAKRKKSQSRGNSQLLLS
B2: ZAK (protein, UniProt Q9NYL2 2-800, looked up)
Mitogen-activated protein …: SSLGASFVQIKFDDLQFFENCGGGSFGSVYRAKWISQDKEVAVKKLLKIEKEAEILSVLSHRNIIQFYGVILEPPNYGIVTEYASLGSLYDYINSNRSEEMDMDHIMTWATDVAKGMHYLHMEAPVKVIHRDLKSRNVVIAADGVLKICDFGASRFHNHTTHMSLVGTFPWMAPEVIQSLPVSETCDTYSYGVVLWEMLTREVPFKGLEGLQVAWLVVEKNERLTIPSSCPRSFAELLHQCWEADAKKRPSFKQIISILESMSNDTSLPDKCNSFLHNKAEWRCEIEATLERLKKLERDLSFKEQELKERERRLKMWEQKLTEQSNTPLLPSFEIGAWTEDDVYCWVQQLVRKGDSSAEMSVYASLFKENNITGKRLLLLEEEDLKDMGIVSKGHIIHFKSAIEKLTHDYINLFHFPPLIKDSGGEPEENEEKIVNLELVFGFHLKPGTGPQDCKWKMYMEMDGDEIAITYIKDVTFNTNLPDAEILKMTKPPFVMEKWIVGIAKSQTVECTVTYESDVRTPKSTKHVHSIQWSRTKPQDEVKAVQLAIQTLFTNSDGNPGSRSDSSADCQWLDTLRMRQIASNTSLQRSQSNPILGSPFFSHFDGQDSYAAAVRRPQVPIKYQQITPVNQSRSSSPTQYGLTKNFSSLHLNSRDSGFSSGNTDTSSERGRYSDRSRNKYGRGSISLNSSPRGRYSGKSQHSTPSRGRYPGKFYRVSQSALNPHQSPDFKRSPRDLHQPNTIPGMPLHPETDSRASEEDSKVSEGGWTKVEYRKKPHRPSPAKTNKERARGDHRGWRNF
B3: MITF (protein, UniProt O75030 1-526, looked up)
Microphthalmia-associated …: MQSESGIVPDFEVGEEFHEEPKTYYELKSQPLKSSSSAEHPGASKPPISSSSMTSRILLRQQLMREQMQEQERREQQQKLQAAQFMQQRVPVSQTPAINVSVPTTLPSATQVPMEVLKVQTHLENPTKYHIQQAQRQQVKQYLSTTLANKHANQVLSLPCPNQPGDHVMPPVPGSSAPNSPMAMLTLNSNCEKEGFYKFEEQNRAESECPGMNTHSRASCMQMDDVIDDIISLESSYNEEILGLMDPALQMANTLPVSGNLIDLYGNQGLPPPGLTISNSCPANLPNIKRELTACIFPTESEARALAKERQKKDNHNLIERRRRFNINDRIKELGTLIPKSNDPDMRWNKGTILKASVDYIRKLQREQQRAKELENRQKKLEHANRHLLLRIQELEMQARAHGLSLIPSTGLCSPDLVNRIIKQEPVLENCSQDLLQHHADLTCTTTLDLTDGTITFNNNLGTGTEANQAYSVPTKMGSKLEDILMDDTLSPVGVTDPLLSSVSPGASKTSSRRSSMSMEETEHTC
B4: SH3PXD2A (protein, UniProt Q5TCZ1 1-1133, looked up)
SH3 and PX domain-containing …: MLAYCVQDATVVDVEKRRNPSKHYVYIINVTWSDSTSQTIYRRYSKFFDLQMQLLDKFPIEGGQKDPKQRIIPFLPGKILFRRSHIRDVAVKRLKPIDEYCRALVRLPPHISQCDEVFRFFEARPEDVNPPKEDYGSSKRKSVWLSSWAESPKKDVTGADATAEPMILEQYVVVSNYKKQENSELSLQAGEVVDVIEKNESGWWFVSTSEEQGWVPATYLEAQNGTRDDSDINTSKTGEVSKRRKAHLRRLDRRWTLGGMVNRQHSREEKYVTVQPYTSQSKDEIGFEKGVTVEVIRKNLEGWWYIRYLGKEGWAPASYLKKAKDDLPTRKKNLAGPVEIIGNIMEISNLLNKKASGDKETPPAEGEGHEAPIAKKEISLPILCNASNGSAVGVPDRTVSRLAQGSPAVARIAPQRAQISSPNLRTRPPPRRESSLGFQLPKPPEPPSVEVEYYTIAEFQSCISDGISFRGGQKAEVIDKNSGGWWYVQIGEKEGWAPASYIDKRKKPNLSRRTSTLTRPKVPPPAPPSKPKEAEEGPTGASESQDSPRKLKYEEPEYDIPAFGFDSEPELSEEPVEDRASGERRPAQPHRPSPASSLQRARFKVGESSEDVALEEETIYENEGFRPYAEDTLSARGSSGDSDSPGSSSLSLTRKNSPKSGSPKSSSLLKLKAEKNAQAEMGKNHSSASFSSSITINTTCCSSSSSSSSSLSKTSGDLKPRSASDAGIRGTPKVRAKKDADANAGLTSCPRAKPSVRPKPFLNRAESQSQEKMDISTLRRQLRPTGQLRGGLKGSKSEDSELPPQTASEAPSEGSRRSSSDLITLPATTPPCPTKKEWEGPATSYMTCSAYQKVQDSEISFPAGVEVQVLEKQESGWWYVRFGELEGWAPSHYLVLDENEQPDPSGKELDTVPAKGRQNEGKSDSLEKIERRVQALNTVNQSKKATPPIPSKPPGGFGKTSGTPAVKMRNGVRQVAVRPQSVFVSPPPKDNNLSCALRRNESLTATDGLRGVRRNSSFSTARSAAAEAKGRLAERAASQGSDSPLLPAQRNSIPVSPVRPKPIEKSQFIHNNLKDVYVSIADYEGDEETAGFQEGVSMEVLERNPNGWWYCQILDGVKPFKGWVPSNYLEKKN
B5: ABLIM1 (protein, UniProt O14639 1-778, looked up)
Actin-binding LIM protein 1: MPAFLGLKCLGKLCSSEKSKVTSSERTSARGSNRKRLIVEDRRVSGTSFTAHRRATITHLLYLCPKDYCPRGRVCNSVDPFVAHPQDPHHPSEKPVIHCHKCGEPCKGEVLRVQTKHFHIKCFTCKVCGCDLAQGGFFIKNGEYLCTLDYQRMYGTRCHGCGEFVEGEVVTALGKTYHPNCFACTICKRPFPPGDRVTFNGRDCLCQLCAQPMSSSPKETTFSSNCAGCGRDIKNGQALLALDKQWHLGCFKCKSCGKVLTGEYISKDGAPYCEKDYQGLFGVKCEACHQFITGKVLEAGDKHYHPSCARCSRCNQMFTEGEEMYLQGSTVWHPDCKQSTKTEEKLRPTRTSSESIYSRPGSSIPGSPGHTIYAKVDNEILDYKDLAAIPKVKAIYDIERPDLITYEPFYTSGYDDKQERQSLGESPRTLSPTPSAEGYQDVRDRMIHRSTSQGSINSPVYSRHSYTPTTSRSPQHFHRPGNEPSSGRNSPLPYRPDSRPLTPTYAQAPKHFHVPDQGINIYRKPPIYKQHAALAAQSKSSEDIIKFSKFPAAQAPDPSETPKIETDHWPGPPSFAVVGPDMKRRSSGREEDDEELLRRRQLQEEQLMKLNSGLGQLILKEEMEKESRERSSLLASRYDSPINSASHIPSSKTASLPGYGRNGLHRPVSTDFAQYNSYGDVSGGVRDYQTLPDGHMPAMRMDRGVSMPNMLEPKIFPYEMLMVTNRGRNKILREVDRTRLERHLAPEVFREIFGMSIQEFDRLPLWRRNDMKKKAKLF
B6: RIN1 (protein, UniProt Q13671 1-783, looked up)
Ras and Rab interactor 1: MESPGESGAGSPGAPSPSSFTTGHLAREKPAQDPLYDVPNASGGQAGGPQRPGRVVSLRERLLLTRPVWLQLQANAAAALHMLRTEPPGTFLVRKSNTRQCQALCMRLPEASGPSFVSSHYILESPGGVSLEGSELMFPDLVQLICAYCHTRDILLLPLQLPRAIHHAATHKELEAISHLGIEFWSSSLNIKAQRGPAGGPVLPQLKARSPQELDQGTGAALCFFNPLFPGDLGPTKREKFKRSFKVRVSTETSSPLSPPAVPPPPVPVLPGAVPSQTERLPPCQLLRRESSVGYRVPAGSGPSLPPMPSLQEVDCGSPSSSEEEGVPGSRGSPATSPHLGRRRPLLRSMSAAFCSLLAPERQVGRAAAALMQDRHTAAGQLVQDLLTQVRAGPEPQELQGIRQALSRARAMLSAELGPEKLLSPKRLEHVLEKSLHCSVLKPLRPILAARLRRRLAADGSLGRLAEGLRLARAQGPGAFGSHLSLPSPVELEQVRQKLLQLLRTYSPSAQVKRLLQACKLLYMALRTQEGEGAGADEFLPLLSLVLAHCDLPELLLEAEYMSELLEPSLLTGEGGYYLTSLSASLALLSGLGQAHTLPLSPVQELRRSLSLWEQRRLPATHCFQHLLRVAYQDPSSGCTSKTLAVPPEASIATLNQLCATKFRVTQPNTFGLFLYKEQGYHRLPPGALAHRLPTTGYLVYRRAEWPETQGAVTEEEGSGQSEARSRGEEQGCQGDGDAGVKASPRDIREQSETTAEGGQGQAQEGPAQPGEPEAEGSRAAEE
B7: MAP3K2 (protein, UniProt Q9Y2U5 1-619, looked up)
Mitogen-activated protein …: MDDQQALNSIMQDLAVLHKASRPALSLQETRKAKSSSPKKQNDVRVKFEHRGEKRILQFPRPVKLEDLRSKAKIAFGQSMDLHYTNNELVIPLTTQDDLDKAVELLDRSIHMKSLKILLVINGSTQATNLEPLPSLEDLDNTVFGAERKKRLSIIGPTSRDRSSPPPGYIPDELHQVARNGSFTSINSEGEFIPESMDQMLDPLSLSSPENSGSGSCPSLDSPLDGESYPKSRMPRAQSYPDNHQEFSDYDNPIFEKFGKGGTYPRRYHVSYHHQEYNDGRKTFPRARRTQGTSLRSPVSFSPTDHSLSTSSGSSIFTPEYDDSRIRRRGSDIDNPTLTVMDISPPSRSPRAPTNWRLGKLLGQGAFGRVYLCYDVDTGRELAVKQVQFDPDSPETSKEVNALECEIQLLKNLLHERIVQYYGCLRDPQEKTLSIFMEYMPGGSIKDQLKAYGALTENVTRKYTRQILEGVHYLHSNMIVHRDIKGANILRDSTGNVKLGDFGASKRLQTICLSGTGMKSVTGTPYWMSPEVISGEGYGRKADIWSVACTVVEMLTEKPPWAEFEAMAAIFKIATQPTNPKLPPHVSDYTRDFLKRIFVEAKLRPSADELLRHMFVHYH

Test system: GFP-14-3-3β and its binding proteins
Assay: GFP-14-3-3β co-IP with LC-MS/MS label-free quantification, untreated versus PP1c-treated
Parameters: species or system human
Conditions: PP1 vs untreated; LFQ intensities, replicates 1-3

Row | Molecule | Difference (log2), PP1 vs untreated [log2]
1 | B1 | -1.5353
2 | B2 | -1.506
3 | B3 | -1.637
4 | B4 | -1.555
5 | B5 | -1.4799
6 | B6 | -1.475
7 | B7 | -1.618

Test system: GFP-14-3-3β
Assay: GFP-14-3-3β co-IP with LC-MS/MS, untreated GFP-14-3-3β versus GFP control (14-3-3 interactome)
Type: binding, human
Conditions: untreated vs GFP; LFQ intensities, replicates 1-3

Row | Molecule | Difference (log2), untreated vs GFP [log2]
8 | B1 | 2.385
9 | B2 | 2.661
10 | B3 | 4.611
11 | B4 | 3.934
12 | B5 | 3.166
13 | B6 | 6.141
14 | B7 | 6.201
